Data as given in PMC4760936 (PLoS ONE, 2016).

Molecular target: staphylococcal enterotoxin B (Staphylococcus aureus, strain , UniProt P01552)
Assay: SPR; ProteOn XPR36; […] (10 mM acetate pH 5.0); […]; Langmuir model
Conditions: both partners purified

Chain of staphylococcal enterotoxin B (P01552 28-266): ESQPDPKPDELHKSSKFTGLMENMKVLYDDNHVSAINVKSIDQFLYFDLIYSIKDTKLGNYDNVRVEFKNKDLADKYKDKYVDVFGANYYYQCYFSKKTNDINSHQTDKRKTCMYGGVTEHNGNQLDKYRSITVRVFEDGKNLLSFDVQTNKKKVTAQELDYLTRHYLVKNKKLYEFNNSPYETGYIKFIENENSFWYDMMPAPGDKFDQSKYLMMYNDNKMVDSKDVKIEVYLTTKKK

| Binder | Kd [nM] | koff [s⁻¹] | kon [M⁻¹ s⁻¹] |
| --- | --- | --- | --- |
| sdAb E2 (VHH, also called Class A exemplar) VHH: EVQLQASGGGLVQAGGSLRLTCAASGRTFGSYAMGWFRQAPGKEREFVAAISWSGGDTYADSVKGRFTISRDNAKNTVYLQMNSLAPEDTAVYSCAAVGARYYISKDAKDYGYWGQGTQVTVSS | 0.27 | 0.0035 | 1.3e+07 |
| sdAb D9 (VHH, also called Class C exemplar) VHH: EVQLQASGGGLAQAGDSLRLSCAASIRTFGSYAMGWFRQAPGKEREFVAAISWSGGDTYADSAKGRFTISRDNAKNMMYLQMNSLAPEDTAVYFCAIVEAKYYISKDARDYGYWGQGTQVFVSS | 0.11 | 0.00028 | 2.5e+06 |
